One block for each binder: values may come before it.
How the values were obtained:
Conditions in all cases: remark: other sources report otherwise
[1] = target: T1, complement factor H, native glycosylated, full-length, purified from human plasma (human), P08603; test: AUC; sedimentation velocity of full-length CFH, 20 °C, 40,000 rpm, Hepes buffer, 0.2 to 1.8 mg/ml, c(s) analysis in SEDFIT, proportions from peak integration; monomer to dimer
T1 chain: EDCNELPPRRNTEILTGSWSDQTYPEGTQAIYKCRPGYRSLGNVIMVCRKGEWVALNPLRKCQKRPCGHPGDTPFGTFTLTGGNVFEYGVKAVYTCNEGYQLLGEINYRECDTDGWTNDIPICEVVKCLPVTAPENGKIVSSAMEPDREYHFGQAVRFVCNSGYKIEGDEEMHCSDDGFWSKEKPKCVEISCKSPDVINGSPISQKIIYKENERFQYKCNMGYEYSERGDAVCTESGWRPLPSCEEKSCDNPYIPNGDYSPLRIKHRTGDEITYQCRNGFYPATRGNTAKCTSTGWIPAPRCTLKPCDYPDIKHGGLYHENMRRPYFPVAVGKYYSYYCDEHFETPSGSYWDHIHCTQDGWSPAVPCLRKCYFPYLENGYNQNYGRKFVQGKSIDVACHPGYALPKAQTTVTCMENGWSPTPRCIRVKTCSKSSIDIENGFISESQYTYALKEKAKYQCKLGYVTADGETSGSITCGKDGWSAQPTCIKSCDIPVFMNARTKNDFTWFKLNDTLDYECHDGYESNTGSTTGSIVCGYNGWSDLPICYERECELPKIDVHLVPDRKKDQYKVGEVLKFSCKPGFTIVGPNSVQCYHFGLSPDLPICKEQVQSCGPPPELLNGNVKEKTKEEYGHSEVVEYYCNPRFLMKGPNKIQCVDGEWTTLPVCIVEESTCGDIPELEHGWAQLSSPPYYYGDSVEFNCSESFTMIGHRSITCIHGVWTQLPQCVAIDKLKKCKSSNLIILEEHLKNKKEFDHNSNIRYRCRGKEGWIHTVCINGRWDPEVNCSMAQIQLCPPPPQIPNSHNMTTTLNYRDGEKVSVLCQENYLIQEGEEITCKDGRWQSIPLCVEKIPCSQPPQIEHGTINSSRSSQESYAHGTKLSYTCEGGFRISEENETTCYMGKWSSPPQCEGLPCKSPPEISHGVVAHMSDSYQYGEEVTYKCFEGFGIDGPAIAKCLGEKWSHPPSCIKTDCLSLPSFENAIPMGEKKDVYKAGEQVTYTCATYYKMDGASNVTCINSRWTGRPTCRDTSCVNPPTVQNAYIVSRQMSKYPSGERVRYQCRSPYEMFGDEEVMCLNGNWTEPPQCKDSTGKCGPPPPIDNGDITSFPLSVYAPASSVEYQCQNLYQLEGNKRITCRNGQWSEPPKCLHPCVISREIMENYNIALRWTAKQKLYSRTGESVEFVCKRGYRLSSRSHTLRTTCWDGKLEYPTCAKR

[2] = target: T1, complement factor H, native …; test: SPR; Biacore X100, biotinylated glycosylated CFH on a streptavidin chip (781 RU), CFH preparations flowed at 0.01 to 1.8 μM, Hepes buffer, single-cycle, 1:1 steady-state affinity fit
[3] = target: T2, partially deglycosylated complement factor H (100 h PNGase F) (human), P08603; test: AUC; sedimentation velocity of full-length CFH, 20 °C, 40,000 rpm, Hepes buffer, 0.2 to 1.8 mg/ml, c(s) analysis in SEDFIT, proportions from peak integration; monomer to dimer
T2 chain: T1 chain

[4] = target: T3, fully deglycosylated complement factor H (200 h PNGase F) (human), P08603; test: as above
T3 chain: T1 chain

proportion of dimer [1]: 4%
stoichiometry N [1]: 2
Kd [2]: 1.6 µM
B1: complement factor H, native glycosylated, full-length, purified from human plasma, P08603 19-1231 (natural protein)
chain: T1 chain
modifications: here or on the partner: eight N-linked biantennary complex-type glycans, among them those at Asn1011 (SCR-17) and Asn1077 (SCR-18); eight N-linked biantennary complex-type glycans, among them those at Asn1011 (SCR-17) and Asn1077 (SCR-18)

proportion of dimer [3]: 15%
stoichiometry N [3]: 2
B2: partially deglycosylated complement factor H (100 h PNGase F), P08603 19-1231 (natural protein)
chain: T1 chain
modifications: here or on the partner: N-linked glycans partly removed with PNGase F: forms with three to six glycan chains were present; N-linked glycans partly removed with PNGase F: forms with three to six glycan chains were present

proportion of dimer [4]: 16%
stoichiometry N [4]: 2
Kd [2]: 11.5 µM
B3: fully deglycosylated complement factor H (200 h PNGase F), P08603 19-1231 (natural protein)
chain: T1 chain
modifications: here or on the partner: N-linked glycans removed with PNGase F: eight, seven, six or five removed, leaving none, one, two or three glycans; N-linked glycans removed with PNGase F: eight, seven, six or five removed, leaving none, one, two or three glycans
